Changes are numbered by the printed parent chain. “Also recorded” adds a separate entry of the source.
Key:
[1] = tested on: CHO cells that express recombinant human ErbB4 (ErbB4-CHO); test: ERK1/2 activation in ErbB4-CHO cells, Western blotting; assay type: cell-based, Chinese hamster; conditions: serum-starved
Method: FIG. 14. […] ErbB4 was stably expressed in CHO cells (designated ErbB4-CHO cells). ErbB4 was detected in a cell lysate of ErbB4-CHO cells by western blotting (top). Serum-starved CHO or ErbB4-CHO cells were stimulated with wt NRG1 (175-222) or the 3KE (175-222) mutant and ERK1/2 activation was measured by Western blotting.
CHO cells express endogenous ErbB2 and ErbB3, but no ErbB4. CHO cells that express ErbB4 were generated by transfecting ErbB4 expression vector (designated ErbB4-CHO). […] It is therefore believed that the direct binding of integrin […] the Ras-MAP kinase pathway in ErbB4-CHO cells.
Transfection: ErbB4 stably transfected cells were generated by transfecting ErbB4 expression plasmid pCDNA3.1 (with a neo gene) to cells and selected for G418 resistance. Western blotting analysis were performed as described above, and mutagenesis was carried out by the Quick-Change method.

[2] = tested on: estrogen-dependent and independent breast cancer cell lines; test: Growth of breast cancer cell lines; assay type: cell-based; conditions: several estrogen-dependent and independent lines
[3] = target: T1, CHO cells that express human β1 (β1-CHO) (Homo sapiens, UniProt P05556); test: Cell adhesion assay, β1-CHO cells; assay type: cell-based
T1 construct: expressed in transfected cells; host or cells: CHO
T1 sequence (P05556 21-798): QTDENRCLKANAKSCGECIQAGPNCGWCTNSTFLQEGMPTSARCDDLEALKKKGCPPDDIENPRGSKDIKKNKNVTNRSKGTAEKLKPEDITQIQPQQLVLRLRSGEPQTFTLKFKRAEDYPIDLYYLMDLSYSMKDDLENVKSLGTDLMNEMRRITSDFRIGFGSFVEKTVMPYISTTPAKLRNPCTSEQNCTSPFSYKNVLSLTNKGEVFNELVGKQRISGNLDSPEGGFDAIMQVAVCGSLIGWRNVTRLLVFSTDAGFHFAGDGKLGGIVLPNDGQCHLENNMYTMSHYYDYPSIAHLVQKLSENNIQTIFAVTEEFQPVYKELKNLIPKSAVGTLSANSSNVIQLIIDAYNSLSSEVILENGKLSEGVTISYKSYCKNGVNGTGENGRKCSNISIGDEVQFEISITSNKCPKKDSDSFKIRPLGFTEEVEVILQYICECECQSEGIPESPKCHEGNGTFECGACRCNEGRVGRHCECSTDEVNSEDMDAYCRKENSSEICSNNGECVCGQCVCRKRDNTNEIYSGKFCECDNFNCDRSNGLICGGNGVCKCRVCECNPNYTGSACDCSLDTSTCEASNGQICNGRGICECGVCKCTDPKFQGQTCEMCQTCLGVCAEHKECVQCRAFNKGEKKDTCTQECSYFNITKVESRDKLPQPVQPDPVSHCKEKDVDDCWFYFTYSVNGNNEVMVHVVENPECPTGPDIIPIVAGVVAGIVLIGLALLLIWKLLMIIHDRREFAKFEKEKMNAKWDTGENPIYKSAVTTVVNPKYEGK
Method: FIG. 3. Adhesion of CHO cells that express human β1 (β1-CHO) or β1-3-1 (β1-3-1-CHO) to wt NRG1 (175-222). The β1-3-1 mutation changes the specificity of β1 integrins to that of β3 integrins. Cell adhesion was performed as described herein. β1-3-1-CHO cells adhered to wt NRG1 (175-222) and this binding was blocked by anti-human β1 antibody AIIB2, but not by purified mouse IgG (mIgG). BSA: BSA as a control was coated instead of NRG1 (175-222).
CHO or K562 cells expressing different recombinant integrins were previously known and available (Zhang et al. 1998; Tarui et al. 2006). Labeling of proteins with FITC or […] was performed according to manufacturers' instructions. Flow cytometry was performed as described above. Also, adhesion assays as described above were used to confirm the findings using flow cytometry.
Cell adhesion and soluble integrin binding assays were performed as described previously (Mori, et al., 2008). NRG1α (175-241) was immobilized to wells of 96-well microtiter plate overnight at 4° C. in 0.1 M carbonate buffer, pH 2 9.4. Remaining protein binding sites were blocked by incubating with 200 μl of 0.1% BSA in PBS for 60 min at room temperature. […] After rinsing the wells with the same buffer, bound integrins were determined by horseradish peroxidase (HRP)-conjugated anti-His tag mouse IgG and substrate 3,3′,5,5′-tetramethylbenzidine of HRP.

[4] = target: T2, CHO cells that express human β3 (β3-CHO) (Homo sapiens, UniProt P05106); test: Cell adhesion assay, β3-CHO cells; assay type: cell-based
T2 construct: expressed in transfected cells; host or cells: CHO
T2 sequence (P05106 27-788): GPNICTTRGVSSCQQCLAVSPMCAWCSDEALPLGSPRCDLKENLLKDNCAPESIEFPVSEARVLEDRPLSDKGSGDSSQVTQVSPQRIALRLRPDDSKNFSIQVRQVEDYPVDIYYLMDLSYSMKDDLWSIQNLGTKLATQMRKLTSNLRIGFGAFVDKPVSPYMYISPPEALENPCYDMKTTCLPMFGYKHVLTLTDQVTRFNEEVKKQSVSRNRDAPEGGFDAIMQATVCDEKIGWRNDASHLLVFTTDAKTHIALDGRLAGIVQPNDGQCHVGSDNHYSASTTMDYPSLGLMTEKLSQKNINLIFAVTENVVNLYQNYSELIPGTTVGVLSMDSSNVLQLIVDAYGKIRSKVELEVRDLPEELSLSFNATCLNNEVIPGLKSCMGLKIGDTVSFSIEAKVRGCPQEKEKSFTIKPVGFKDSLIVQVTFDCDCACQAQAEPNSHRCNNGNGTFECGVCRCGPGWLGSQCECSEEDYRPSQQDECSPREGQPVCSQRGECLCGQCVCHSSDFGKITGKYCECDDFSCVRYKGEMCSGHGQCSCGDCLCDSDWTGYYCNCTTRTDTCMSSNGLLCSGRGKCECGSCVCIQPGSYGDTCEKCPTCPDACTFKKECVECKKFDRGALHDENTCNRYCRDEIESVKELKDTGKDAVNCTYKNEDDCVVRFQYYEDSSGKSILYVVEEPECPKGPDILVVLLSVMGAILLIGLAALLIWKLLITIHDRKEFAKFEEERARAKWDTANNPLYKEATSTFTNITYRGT
Method: CHO or K562 cells expressing different recombinant integrins were previously known and available (Zhang et al. 1998; Tarui et al. 2006). Labeling of proteins with FITC or […] was performed according to manufacturers' instructions. Flow cytometry was performed as described above.
Cell adhesion and soluble integrin binding assays were performed as described previously (Mori, et al., 2008). NRG1α (175-241) was immobilized to wells of 96-well microtiter plate overnight at 4° C. in 0.1 M carbonate buffer, pH 2 9.4. Remaining protein binding sites were blocked by incubating with 200 μl of 0.1% BSA in PBS for 60 min at room temperature. Wells were then incubated with soluble integrin αvβ3 in 50 μl in Hepes-Tyrode's buffer supplemented with 1 mM Mn2+ at room temperature for 60 min. After rinsing the wells with the same buffer, bound integrins were determined by horseradish peroxidase (HRP)-conjugated anti-His tag mouse IgG and substrate 3,3′,5,5′-tetramethylbenzidine of HRP.

[5] = target: T3, Recombinant human ErbB3 Fc chimera (Homo sapiens, UniProt P21860); test: ELISA-type binding to immobilized recombinant soluble ErbB3; conditions: ErbB3 Fc coated at 1 μg/ml, 1 h room temperature
T3 construct: Recombinant soluble ErbB3 Fc fusion protein was coated onto well of 96-well microtiter plate; purchased R&D Systems
T3 sequence (P21860 20-643 limits assumed, change not shown): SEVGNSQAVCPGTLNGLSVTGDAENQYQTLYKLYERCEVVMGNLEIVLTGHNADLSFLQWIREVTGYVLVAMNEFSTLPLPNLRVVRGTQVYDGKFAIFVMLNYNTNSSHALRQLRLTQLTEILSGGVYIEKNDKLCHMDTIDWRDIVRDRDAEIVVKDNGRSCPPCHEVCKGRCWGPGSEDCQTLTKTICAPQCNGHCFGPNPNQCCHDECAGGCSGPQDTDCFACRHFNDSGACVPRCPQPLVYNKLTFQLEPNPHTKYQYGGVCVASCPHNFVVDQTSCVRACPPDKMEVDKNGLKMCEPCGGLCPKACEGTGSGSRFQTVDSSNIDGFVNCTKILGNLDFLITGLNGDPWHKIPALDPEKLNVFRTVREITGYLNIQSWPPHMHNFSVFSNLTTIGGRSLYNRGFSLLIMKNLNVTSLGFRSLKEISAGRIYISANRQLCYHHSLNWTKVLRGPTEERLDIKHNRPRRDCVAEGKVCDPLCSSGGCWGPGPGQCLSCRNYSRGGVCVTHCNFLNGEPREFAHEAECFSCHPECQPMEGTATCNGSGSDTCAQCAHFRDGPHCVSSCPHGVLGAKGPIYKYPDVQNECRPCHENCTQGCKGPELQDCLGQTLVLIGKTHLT
Method: FIG. 20. The 3KE mutant of NRG1α (175-241) binds to ErbB3. a). Binding of the 3KE mutant of NRG1α (175-241) to recombinant ErbB3. Recombinant soluble ErbB3 Fc fusion protein (R&D system) was coated onto wells of 96-well microtiter plate (1 μg/ml). NRG1α (175-241) WT or 3KE (175-241) mutant was added to the wells and incubated for 1 h at room temperature. GST was used as a control. After washing the wells, bound GST NRG1α (175-241) was determined by using anti-GST antibody HRP conjugate. […] Competitive binding assay. Recombinant soluble ErbB3 Fc fusion protein was coated onto well of 96-well microtiter plate (1 μg/ml). Binding of biotin labeled NRG1α (175-241) WT (20 nM) in the presence of increasing concentrations of NRG1α (175-241) WT, 3KE (175-241) or GST. After washing the wells, bound biotin labeled NRG1α (175-241) WT was determined by using streptavidin HRP conjugate.

3KE (175-222): NRG1 (175-222) with Lys181/Lys185/Lys187 mutated to Glu; GTSHLVECAEEEETFCVNGGECFMVKDLSNPSRYLCKCQPGFTGARCT (SEQ ID NO:11) (integrin-binding site within human neuregulin, 3KE mutant, short version)
ERK1/2 activation in ErbB4-CHO cells [1]: activated ERKI/2; also recorded: enhanced ERK1/2 activation | Growth of breast cancer cells [2]: did not

wt NRG1 (175-222): wild type human neuregulin 1 fragment, EGF-like domain, residues 175-222 of SEQ ID NO:4 (SEQ ID NO:3) (GTSHLVKCAEKEKTFCVNGGECFMVKDLSNPSRYLCKCQPGFTGARCT; integrin-binding site within human neuregulin 1 EGF-like region and portion of alpha domain, residues 175-222 of human neuregulin 1 alpha) [reference compound]
Adhesion of β1-CHO cells to the immobilized protein [3]: did not | ERK1/2 activation in ErbB4-CHO cells [1]: suppressed ERK1/2 | ERK1/2 activation in ErbB4-CHO cells ([1]; listed as wt NRG (175-222)): suppressed | Adhesion of β3-CHO cells to the immobilized protein [4]: adhered to NRG1 (175-222) | Growth of breast cancer cells [2]: enhanced the growth of breast cancer cells

B1: WT NRG1α (175-241): wild type human neuregulin 1 fragment, residues 175-241 of SEQ ID NO:4 (SEQ ID NO:5), entire EGF-like motif and α domain (protein)
chain: GTSHLVKCAEKEKTFCVNGGECFMVKDLSNPSRYLCKCQPGFTGARCTENVPMKVQNQEKAEELYQK
modifications: integrin-binding site within human neuregulin, residues 175-241of human neuregulin 1alpha, long version
Adhesion of β1-CHO cells to the immobilized protein [3]: did not | Binding to immobilized soluble ErbB3 (ELISA-type assay) [5]: bound to immobilized soluble ErbB3 comparably | Adhesion of β3-CHO cells to the immobilized protein [4]: adhered to NRG1α (175-241)

B2: 3KE (175-241): NRG1α (175-241) with Lys181/Lys185/Lys187 mutated to Glu, SEQ ID NO:6 (3KE, long version) (protein)
chain: B1 chain with K7E, K11E, K13E
modifications: integrin-binding site within human neuregulin, residues 175-241of human neuregulin 1alpha, long version, 3KE mutant
Binding to immobilized soluble ErbB3 (ELISA-type assay) ([5]; listed as 3KE mutant NRG1α (175-241)): bound to immobilized soluble ErbB3 comparably | Binding to immobilized soluble ErbB3 (ELISA-type assay) ([5]; listed as 3KE mutant of NRG1α (175-241)): binds to ErbB3 at levels nearly comparable to WT NRG1α (175-241)
